These are literature values, as cited in publication PMC8573040.

One series deals with Im7 (Escherichia coli) (UniProt Q03708).
Series [1] deals with MBP (unfolded) (Escherichia coli) [MBP: P0AEX9].
For series [2], the target named is PhoA (unfolded) (Escherichia coli) [phosphatase: P00634].

Sequence of UniProt Q03708 (Q03708 whole entry): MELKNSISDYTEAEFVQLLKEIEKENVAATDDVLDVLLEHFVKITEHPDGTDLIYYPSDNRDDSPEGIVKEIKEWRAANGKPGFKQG

What is called Kd is the equilibrium constant for the complex coming apart. As to Spy (from UniProt P77754), the Kd with Im7 (Escherichia coli) was 2000 nM. In the case of SecB (from UniProt P0AG86), the Kd in series [1] is 50 nM; in series [2] it was 500 nM.
